According to article PMC3306366, “Oligomeric Status and Nucleotide Binding Properties of the Plastid ATP/ADP Transporter 1: Toward a Molecular Understanding of the Transport Mechanism” (PLoS ONE, 2012):
Residue numbers refer to the chain shown, from its start. Read-outs that look alike come from different tables or passages of the source.

What was measured:
NTT1ΔC = target: T1, NTT1ΔC (Arabidopsis thaliana, UniProt Q39002); test: tryptophan fluorescence variation, two-site fit; assay type: binding; conditions: 20 mM Tris pH 8, 10 mM NaCl, 0.1% LAPAO, 25°C, stronger site of two-site fit
T1 construct: gene AATP1; mature form (first 79 residues removed) with last 41 residues deleted (deletion borders computed from a recalled length of 624); tagged; E. coli; purified in LAPAO; partly aggregated
T1 sequence (Q39002 80-583): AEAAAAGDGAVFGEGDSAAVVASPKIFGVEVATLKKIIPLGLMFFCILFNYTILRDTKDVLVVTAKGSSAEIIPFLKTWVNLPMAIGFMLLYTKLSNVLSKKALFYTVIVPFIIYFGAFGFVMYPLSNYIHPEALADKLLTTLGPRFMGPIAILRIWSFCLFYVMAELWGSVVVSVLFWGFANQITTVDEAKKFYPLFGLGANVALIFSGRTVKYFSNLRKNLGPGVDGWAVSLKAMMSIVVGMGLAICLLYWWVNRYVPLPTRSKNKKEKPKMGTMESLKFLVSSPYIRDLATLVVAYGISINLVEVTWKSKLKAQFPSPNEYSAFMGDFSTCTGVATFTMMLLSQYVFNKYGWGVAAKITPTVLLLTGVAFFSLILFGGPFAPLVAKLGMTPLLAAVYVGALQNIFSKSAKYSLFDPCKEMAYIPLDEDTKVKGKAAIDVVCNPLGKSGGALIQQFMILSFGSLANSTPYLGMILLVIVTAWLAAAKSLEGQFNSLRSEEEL
Excerpt: tryptophan fluorescence variation, two-site fit on NTT1ΔC

[1] = target: T2, NTT1 (plastid / chloroplast ATP/ADP transporter 1) (Arabidopsis thaliana, UniProt Q39002, E246K); test: tryptophan fluorescence variation; assay type: binding
T2 construct: gene AATP1; mature form lacking first 79 residues (transit peptide), N-terminal His-tag, C-terminal StreptagII; E. coli; purified in LAPAO; monomers and dimers
T2 sequence (Q39002 80-624 E246K): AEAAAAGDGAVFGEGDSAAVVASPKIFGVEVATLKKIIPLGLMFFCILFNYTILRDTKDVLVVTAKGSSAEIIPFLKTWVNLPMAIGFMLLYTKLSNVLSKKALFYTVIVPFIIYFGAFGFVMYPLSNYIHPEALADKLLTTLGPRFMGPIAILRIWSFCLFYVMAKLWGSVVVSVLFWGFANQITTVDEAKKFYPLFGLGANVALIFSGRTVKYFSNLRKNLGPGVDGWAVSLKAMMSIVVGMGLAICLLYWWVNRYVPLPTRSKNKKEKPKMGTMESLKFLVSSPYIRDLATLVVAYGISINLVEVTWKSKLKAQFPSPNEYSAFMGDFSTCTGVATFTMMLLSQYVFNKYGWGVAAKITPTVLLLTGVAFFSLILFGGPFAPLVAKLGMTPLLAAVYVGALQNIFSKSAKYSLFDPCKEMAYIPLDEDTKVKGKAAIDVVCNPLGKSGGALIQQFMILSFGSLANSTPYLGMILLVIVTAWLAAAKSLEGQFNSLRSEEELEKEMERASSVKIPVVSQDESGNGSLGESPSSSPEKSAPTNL
Excerpt: (§1) tryptophan fluorescence variation on NTT1 (plastid / chloroplast ATP/ADP transporter 1)

[2] = target: T3, NTT1 (plastid / chloroplast ATP/ADP transporter 1) (Arabidopsis thaliana, UniProt Q39002, K156R); test: tryptophan fluorescence variation; assay type: binding; conditions: read-out: Affinity for ATP
T3 construct: gene AATP1; mature form lacking first 79 residues (transit peptide), N-terminal His-tag, C-terminal StreptagII; E. coli; purified in LAPAO; monomers and dimers
T3 sequence (Q39002 80-624 K156R): T2 sequence (Q39002 80-624 E246K) with K77R, K167E
Excerpt: as §1

[3] = target: T4, NTT1 (plastid / chloroplast ATP/ADP transporter 1) (Arabidopsis thaliana, UniProt Q39002, K528R); test: tryptophan fluorescence variation; assay type: binding
T4 construct: gene AATP1; mature form lacking first 79 residues (transit peptide), N-terminal His-tag, C-terminal StreptagII; E. coli; purified in LAPAO; monomers and dimers
T4 sequence (Q39002 80-624 K528R): T2 sequence (Q39002 80-624 E246K) with K167E, K449R
Excerpt: as §1

[4] = target: T5, NTT1 (plastid / chloroplast ATP/ADP transporter 1) (Arabidopsis thaliana, UniProt Q39002); test: tryptophan fluorescence quenching; assay type: binding; conditions: 20 mM Tris pH 8, 10 mM NaCl, 0.1% LAPAO, 25°C; no Mg2+, no Pi; one-site fit; read-out: Affinity
T5 construct: gene AATP1; mature form lacking first 79 residues (transit peptide), N-terminal His-tag, C-terminal StreptagII; E. coli; purified in LAPAO; monomers and dimers
T5 sequence (Q39002 80-624): T2 sequence (Q39002 80-624 E246K) with K167E
Excerpt: tryptophan fluorescence quenching on NTT1 (plastid / chloroplast ATP/ADP transporter 1)

[5] = target: T6, NTT1 (plastid / chloroplast ATP/ADP transporter 1) (Arabidopsis thaliana, UniProt Q39002, K528E); test: tryptophan fluorescence variation; assay type: binding; conditions: read-out: Affinity for ADP
T6 construct: gene AATP1; mature form lacking first 79 residues (transit peptide), N-terminal His-tag, C-terminal StreptagII; E. coli; purified in LAPAO; monomers and dimers
T6 sequence (Q39002 80-624 K528E): T2 sequence (Q39002 80-624 E246K) with K167E, K449E
Excerpt: as §1

[6] = target: Chloroplast ATP/ADP transporter 1 (NTT1), mature form (Arabidopsis thaliana); test: AUC; sedimentation velocity, NTT1 solubilised and purified in FC12; 42,000 rpm, 10°C
[7] = target: Chloroplast ATP/ADP transporter 1 (NTT1), mature form (Arabidopsis thaliana); test: AUC; sedimentation velocity, NTT1 solubilised and purified in β-DDM; 42,000 rpm, 10°C
[8] = target: Chloroplast ATP/ADP transporter 1 (NTT1), mature form (Arabidopsis thaliana); test: AUC; sedimentation velocity, purified protein in 20 mM Tris pH 8, 100 mM NaCl, 0.1% LAPAO, 3 mM desthiobiotin; 42,000 rpm, 10°C; c(s) analysis, absorbance and interference
[9] = target: Chloroplast ATP/ADP transporter 1 (NTT1), mature form (Arabidopsis thaliana); test: AUC; sedimentation velocity, NTT1 exchanged from detergent into amphipols; 42,000 rpm, 10°C
[10] = target: Chloroplast ATP/ADP transporter 1 (NTT1), mature form (Arabidopsis thaliana); test: Multiple Angle Laser Light Scattering; purified NTT1 in LAPAO; data not shown
[11] = substrate: Nc1ncnc2c1ncn2[C@@H]1O[C@H](COP(=O)(O)OP(=O)(O)OP(=O)(O)O)[C@@H](O)[C@H]1O; test: radioactive ATP uptake in whole E. coli cells; assay type: cell-based, Arabidopsis thaliana; conditions: transport Km; C-terminal Mistic fusion
Excerpt: radioactive ATP uptake in whole E. coli cells on […]

[12] = substrate: Nc1ncnc2c1ncn2[C@@H]1O[C@H](COP(=O)(O)OP(=O)(O)O)[C@@H](O)[C@H]1O; test: ATP/ADP exchange by luciferase luminescence, whole E. coli cells; assay type: cell-based, Arabidopsis thaliana; conditions: transport Km; C-terminal Mistic fusion
Excerpt: ATP/ADP exchange by luciferase luminescence, whole E. coli cells on NTT1mis

Nc1ncnc2c1ncn2[C@@H]1O[C@H](COP(=O)(O)OP(=O)(O)OP(=O)(O)O)[C@@H](O)[C@H]1O [ATP] was tested. Which Kd (NTT1ΔC; read-out: Affinity for ATP) did it give?
The Kd was 0.7 ± 0.5 µM.

And the Kd ([1]; read-out: Affinity for ATP)?
The Kd was 1.9 ± 1.7 µM.

What about the Kd [2] of the same molecule?
Its Kd is 91.2 ± 58.8 µM.

What about the Kd ([3]; read-out: Affinity for ATP) of the same molecule?
The Kd was greater than 1000 µM.

And the Kd [4]?
Its Kd is 4.2 ± 0.7 µM.

What does the source list for Nc1ncnc2c1ncn2[C@@H]1O[C@H](COP(=O)(O)OP(=O)(O)O)[C@@H](O)[C@H]1O [ADP]?
Kd (NTT1ΔC; read-out: Affinity for ADP): 0.6 ± 0.7 µM; Kd ([1]; read-out: Affinity for ADP): 14 ± 5.1 µM; Kd [5]: 19 ± 24.1 µM; Kd ([3]; read-out: Affinity for ADP): 33.5 ± 22.3 µM; Kd [4]: 8.6 ± 1.5 µM

Which dimer (% of the three species) [6] does the source give for “Chloroplast ATP/ADP transporter 1 (NTT1), mature form (natural protein)” here?
Its dimer (% of the three species) is 35%.

What about the tetramer (% of the three species) [6] of the same molecule?
The tetramer (% of the three species) was 18%.

What about the dimer (% of the three species) [7] of the same molecule?
The dimer (% of the three species) was 29%.

What about the dimer (% of the three species) [8] of the same molecule?
The dimer (% of the three species) was 35%.

What about the stoichiometry N [8] of the same molecule?
The stoichiometry N was 2.

And the tetramer (% of the three species) [8]?
The tetramer (% of the three species) was 23%.

What about the dimer (% of the three species) [9] of the same molecule?
Its dimer (% of the three species) is 33%.

What about the tetramer (% of the three species) [9] of the same molecule?
Its tetramer (% of the three species) is 23%.

What about the stoichiometry N [10] of the same molecule?
Its stoichiometry N is 4.

B1: NTT1mis (Arabidopsis thaliana) (protein)
chain: T2 sequence (Q39002 80-624 E246K) with K167E
notes: expressed in E. coli, assayed in whole cells; with Protein mistic
For B1, which Km [11] is on record?
Its Km is 13.2 ± 5.3 µM.

And the Km [12]?
Its Km is 12.0 ± 5.2 µM.
